{"source": "patent US10029000B2", "about": "“Uses of IL-12 in hematopoiesis” (University of Southern California, priority 2003, dated 2018)", "molecules": {"B1": {"name": "IL-12: Recombinant murine interleukin 12, heterodimeric cytokine (p35+p40), purchased from R&D Systems or PeproTech (protein, UniProt P43431 23-215; P43432 23-335, looked up)", "Interleukin-12 subunit alpha": "RVIPVSGPARCLSQSRNLLKTTDDMVKTAREKLKHYSCTAEDIDHEDITRDQTSTLKTCLPLELHKNESCLATRETSSTTRGSCLPPQKTSLMMTLCLGSIYEDLKMYQTEFQAINAALQNHNHQQIILDKGMLVAIDELMQSLNHNGETLRQKPPVGEADPYRVKMKLCILLHAFSTRVVTINRVMGYLSSA", "Interleukin-12 subunit beta": "MWELEKDVYVVEVDWTPDAPGETVNLTCDTPEEDDITWTSDQRHGVIGSGKTLTITVKEFLDAGQYTCHKGGETLSHSHLLLHKKENGIWSTEILKNFKNKTFLKCEAPNYSGRFTCSWLVQRNMDLKFNIKSSSSSPDSRAVTCGMASLSAEKVTLDQRDYEKYSVSCQEDVTCPTAEETLPIELALEARQQNKYENYSTSFFIRDIIKPDPPKNLQMKPLKNSQVEVSWEYPDSWSTPHSYFSLKFFVRIQRKKEKMKETEEGCNQKGAFLVEKTSTEVQCKGGNVCVQAQDRYYNSSCSKWACVPCRVRS"}}, "key": {"peripheral blood cells [1]": {"system": "peripheral blood cells", "assay": "Peripheral blood cell counts after lethal or sublethal irradiation", "format": "in vivo, mice (C57BL/6J)", "description": "After lethal dose radiation (10 Gy), the full blood cell count dropped to lowest point for both IL-12 treated and non-treated mice. However, 11-12 treated mice start to recover at day 14 post radiation while the control animals died out. It is noteworthy that the recovery is multi-lineage, including white blood cell, red blood cell and platelets.\nHere too, the recovery is broad range and encompasses all blood lineages and blood cell types. […] This effect is somewhat better when IL-12 was administrated 24 hours before radiation than IL-12 administrated after radiation.\nFor peripheral blood cell counts, 6-8 week old female C57BL/6J mice received an i.v. injection of IL-12 before or after lethal (1000 rad) or sub-lethal (500 rad) irradiation. 10 ul blood was taken from the tail to do blood cell count analyses in a MASCOT Multispecies Hematology Systems (CDC Technologies, Oxford, Conn.) at different days after irradiation. Each group had at least 3 mice."}, "[2]": {"system": "long-term repopulating HSC", "assay": "Secondary bone marrow transplantation of IL-12 rescued marrow", "format": "in vivo, mice (Ly5.2 donor, Ly5.1 recipient)", "conditions": "donor derived T/B and M/G cells detected", "description": "FIG. 5D-F: Secondary bone marrow transplantation was employed to detect if IL-12 can protect long-term repopulating HSC. Six month after lethal dose radiation and IL-12 rescue, bone marrow cells from these mice (Ly 5.2) were isolated and transplanted to secondary lethally irradiated mice (Ly 5.1). Four months after transplantation, donor cells (Ly5.2) were examined in recipient's peripheral blood.\nThe following gives some further experimental details. Six months after the rescue from lethal dose radiation (IL-12 treated mice, C57BL/Ly5.2), whole bone marrow cells were isolated and 1×10^6 cells were transplanted to secondary lethally irradiated mice (C57BL/Ly5.1). 4 months after transplantation, blood cells were collected and stained with anti-Ly5.2 and anti-Mac-1/anti-Gr-lantibodies (5D), and anti-Ly5.2 and anti-CD3/anti-B220 antibodies (5E) and anti-Ly5.2 antibody (5F). […]\nLy5.2 strain mice rescued by IL-112 treatment before or after lethal irradiation were sacrificed after 6 months. […] 4 months after the transplantation, peripheral blood cells were analyzed for Ly5.2 cells (anti-Ly5.2 antibody conjugated with FITC) with T cell and B cell markers (anti-CD3 and anti-B220 antibody conjugated with PE) and with macrophage and granulocyte cell markers (anti-CD11b and anti-Gr1 antibody conjugated with PE) using FACS. […]"}, "bone marrow": {"system": "bone marrow", "assay": "Bone marrow histology (H&E) after lethal dose radiation", "format": "in vivo, mice", "conditions": "5 ug/kg", "procedure": "At different time post IL-12 treatment (5 ug/kg) and lethal dose radiation (1, 12 and 14 days), femurs were isolated, fixed in 10% formalin, decalcified and processed for paraffin section and for Hematoxylin & Eosin staining. FIG. 2A: 1 day post radiation; FIG. 2B: 12 days post radiation; FIG. 2C: 14 days post radiation. […] (200× magnification)\n(§1) To determine if IL-112 sensitizes intestinal tract to ionizing radiation, two different doses of IL-12 and radiation were used in radioprotection assay, namely 5 ug/kg and 50 ug/kg of IL-12 and two different doses of radiation were also used. Subsequent to the administration of IL-12 and radiation, both bone marrow and the small intestine were removed from mice who received either 5 ug/kg or 50 ug/kg of IL-12 and a lethal dose radiation for histology study. The lethal doses were either 1000 rad or 1600 rad.\n(§2) Mice were treated with IL-12 (100 ng/mouse) or PBS 24 hours before receiving lethal irradiation. At different days after lethal irradiation, femurs, spleens and small intestines were removed and fixed in 10% formalin buffer for 24 hours. Subsequently, bone marrow was decalcified in Rapid Decalcifier for about 30 minutes. Samples and tissues then were embedded in TissuePrep 2 paraffin wax for micro-section at 5 μm for routine Hematoxylin and Eosin staining. Some small intestines were treated with PAS (Periodic Acid Schiff) staining."}, "bone marrow cells": {"system": "bone marrow cells", "assay": "Cell cycle analysis with propidium iodide staining", "format": "in vivo, mice", "conditions": "24 hours post IL-12 administration; control 10%, p<0.05", "procedure": "It is believed that cells at S phase are more resistant to radiation. Both Brd-U incoperation and cell cycling analysis were performed to determine if IL-12 can stimulate bone marrow cell proliferation. In IL-12 treated mice, there are more bone marrow cells in S phase compared with control animals (12% vs 10%, p<0.05). Furthermore, there are more BrdU positive cells in IL-12 treated bone marrow compared with control animals (17% vs 8%, p<0.05).\n24 hours post IL-12 administration (10 ng/mouse), bone marrow cells were isolated for BrdU incooperation assay (FIG. 7A).\nFor the cell cycling assay, IL-12 (100 ng/mouse) or PBS was intravenously injected into mice. 24 hours after injection, whole bone marrow cells were flushed from femurs and treated with lysis buffer to destroy red blood cells. After washing in PBS and fixing in −20° C. pure ethanol for at least 1 hour, about 5×10^5 bone marrow cells were treated with RNase A (20 ng/ul final concentration) at 37° C. for 30 minutes, then stained with propidium iodide (100 ng/ul final concentration) from Sigma (St Louis, Mo.) at room temperature for 15 to 30 minutes and then processed directly for cell cycling analysis using fluorescence activated cell sorting (FACS)."}, "small intestine": {"system": "small intestine", "assay": "Small intestine histology after lethal dose radiation", "format": "in vivo, mice", "conditions": "5 ug/kg, 1000 rad or 1600 rad (10 and 16 Gy), 4 days post radiation", "procedure": "4 days post radiation, small intestine were removed, fixed for PAS staining for mice received 10 Gy (Periodic Acid Schiff), H&E staining for mice received 16 Gy. […] There is no obvious histological damage in mice who received 10 Gy radiation. (200× magnification)\nas §1, §2"}, "peripheral blood cells [3]": {"system": "peripheral blood cells", "assay": "Blood cell recovery after chemotherapeutic drug Cytoxan", "format": "in vivo, mice", "conditions": "Cytoxan 300 mg/kg, IL-12 36 hrs before or 12 hrs after, n=5", "procedure": "FIG. 9A: white blood cell; FIG. 9B: red blood cell; FIG. 9C: platelet; FIG. 9D: lymphocyte; FIG. 9E: monocyte; FIG. 9F: neutrophile. Cytoxan is name for cyclophosphamide.\nA study was conducted to determine whether IL-12 administration promotes multi-lineage blood cell recovery when used in conjunction with a chemotherapeutic drug. In this example, use of IL-12 is as an adjuvant or ancillary therapy to the primary therapy of chemotherapy. IL-12 was administrated at different time (36 hrs before or 12 hrs after chemotherapy). Mice in this study received a relatively high dose of chemotherapeutic drug Cytoxan (e.g., 300 mg/kg). At different time post-cytoxan treatment, peripheral blood was collected via tail vein for blood cell count study. (Mascot). FIG. 9A white blood cell count; B: red blood cell count; C: platelet count."}}, "note": "Entries after “also recorded” stand apart in the source; their conditions may differ.", "data": [{"molecule": "B1", "values": [{"measurement": "time to reach normal blood cell count", "setting": "peripheral blood cells [1]; lethal dose radiation (10 Gy)", "value": "about 30 days post radiation"}, {"measurement": "day at which blood cell counts start to recover", "setting": "peripheral blood cells [1]; lethal dose radiation (10 Gy), 100 ng/mouse", "value": "≤ 14", "unit": "day post radiation"}, {"measurement": "day at which blood cell counts start to recover", "setting": "peripheral blood cells [1]; lethal dose radiation (10 Gy), 100 ng/mouse, listed as 11-12", "value": 14, "unit": "day post radiation"}, {"measurement": "blood cell count recovery versus control", "setting": "peripheral blood cells [1]; sublethal radiation (500 rad), 100 ng/mouse", "value": "accelerates the blood cell count recovery"}, {"measurement": "red blood cell, platelet, white blood cell and monocyte versus control", "setting": "peripheral blood cells [1]; sublethal radiation (500 rad), day 5 and 8 post radiation, p<0.05", "value": "statistically higher"}, {"measurement": "protection of long-term repopulating cells", "setting": "[2]", "value": "protects long-term repopulating cells"}, {"measurement": "bone marrow cellularity versus control", "setting": "bone marrow; day 1 post lethal radiation", "value": "significant higher cellularity"}, {"measurement": "bone marrow histological structure versus control", "setting": "bone marrow; day 7 and day 10 post radiation", "value": "no significant difference"}, {"measurement": "bone marrow colonies", "setting": "bone marrow; day 12 post radiation", "value": "colonies were observed"}, {"measurement": "bone marrow recovery", "setting": "bone marrow; day 14 post radiation", "value": "full recovery of bone marrow cellularity; also recorded: significant regeneration"}, {"measurement": "bone marrow cells in S phase", "setting": "bone marrow cells", "value": 12, "unit": "%"}, {"measurement": "small intestine histology versus control", "setting": "small intestine", "value": "no significant histological difference"}, {"measurement": "blood cell recovery versus control", "setting": "peripheral blood cells [3]", "value": "better blood cell recovery"}]}]}
